The supplement of paper PMC10567573

B1: CDC25B (parent)
chain: KSPIAPCSLDKRVILIFHCEFSSE
B2: TMEM106C (parent)
chain: YVTTNVSLIPPRSEQLVNFTGKAE

Variants of: B1
Assay: protein stability index of a GFP-peptide fusion (GPS, HEK-293T) (PSI 1-6); higher = more stable
Conditions: c terminus: a fixed tail appended
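Note: lentivirally expressed fusions sorted by FACS into six bins by GFP to DsRed ratio, PSI derived from sequencing read proportions per bin multiplied by bin number.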

Row | Variant | protein stability index
1 | S2W | 4.11
2 | S2F | 3.02
3 | S2A | 2.37
4 | S2Y | 3.15
5 | S2E | 3.4
6 | S2I | 1.68
7 | S2T | 3.22
8 | S2M | 1.13
9 | S2D | 3.82
10 | K1F | 2.7
11 | K1G | 3.01
12 | K1S | 3.48
13 | K1N | 1.96
14 | K1L | 1.86
15 | K1I | 1.11
16 | K1P | 3.88
17 | P3A | 2.25
18 | P3H | 2.63
19 | P3G | 1.9
20 | P3I | 2.38

Variants of: B2
Assay: as above
Conditions: c terminus: a fixed tail appended

Row | Variant | protein stability index
21 | P10E | 1.66
22 | P10L | 1.86
23 | P10N | 2.78
24 | P10H | 1.91
25 | P10F | 2.74
26 | P10D | 1.46
27 | P10S | 1.82
28 | P10G | 3.2
29 | P10V | 3.38
30 | P10T | 2.42
31 | P10M | 2.82
32 | P10C | 2.58
33 | P10K | 2.45
34 | P10Q | 2.26
35 | P10R | 3
36 | P10Y | 2.88
37 | P10W | 2.56
38 | P10I | 2.65
39 | P10A | 3.06
40 | N18E | 1.3
41 | N18R | 2.33
42 | N18T | 1.62
43 | N18D | 3.25
44 | N18S | 2.36
45 | N18L | 2.14

Row | Variant | protein stability index
46 | N18A | 2.02
47 | N18I | 3.13
48 | N18C | 1.95
49 | N18F | 2.28
50 | N18K | 2.71
51 | N18Q | 2.07
52 | N18G | 1.7
53 | N18W | 3.06
54 | N18M | 2.37
55 | N18P | 2.4
56 | N18V | 1.81
57 | N18H | 2.38
58 | R12E | 1.9
59 | R12M | 2.14
60 | R12S | 2.23
61 | R12K | 1.9
62 | R12C | 1.86
63 | R12D | 1.92
64 | R12H | 1.85
65 | R12P | 1.86
66 | R12G | 2.49
67 | R12T | 2.09
68 | R12Y | 2.39
69 | R12V | 2.08
70 | R12I | 1.78

Row | Variant | protein stability index
71 | R12N | 1.83
72 | R12F | 2.75
73 | R12A | 2.85
74 | R12L | 1.48
75 | R12Q | 2.1
76 | R12W | 2.19
77 | E24T | 2.75
78 | E24P | 3.06
79 | E24Y | 2.7
80 | E24S | 2.1
81 | E24C | 2.32
82 | E24I | 2.32
83 | E24N | 2.92
84 | E24F | 2.81
85 | E24G | 1.64
86 | E24D | 2.58
87 | E24L | 2.08
88 | E24M | 2.05
89 | E24R | 1.48
90 | E24A | 2
91 | E24V | 1.41
92 | E24W | 2.93
93 | E24Q | 2.06
94 | E24H | 1.49
95 | E24K | 1.88

Row | Variant | protein stability index
96 | I9T | 2.43
97 | I9F | 1.7
98 | I9C | 1.2
99 | I9A | 2.94
100 | I9N | 2.17
101 | I9H | 2.46
102 | I9Q | 1.61
103 | I9Y | 2.32
104 | I9V | 1.51
105 | I9R | 1.99
106 | I9W | 1.75
107 | I9G | 1.6
108 | I9M | 1.86
109 | I9P | 1.81
110 | I9E | 2.25
111 | I9D | 2.24
112 | I9K | 2.02
113 | I9L | 1.7
114 | I9S | 1.71
115 | T20R | 2.19
116 | T20W | 2.85
117 | T20D | 1.95
118 | T20G | 2.13
119 | T20Y | 2.86
120 | T20S | 1.51

Row | Variant | protein stability index
121 | T20M | 3.02
122 | T20F | 2.31
123 | T20L | 1.99
124 | T20H | 1.86
125 | T20V | 1.84
126 | T20C | 2.34
127 | T20E | 2.09
128 | T20Q | 1.66
129 | T20P | 2.29
130 | T20A | 2.27
131 | T20I | 2.08
132 | T20K | 2.11
133 | T20N | 1.53
134 | E14Y | 2.19
135 | E14N | 1.8
136 | E14K | 2.16
137 | E14R | 1.87
138 | E14S | 1.79
139 | E14G | 1.59
140 | E14V | 2
141 | E14L | 2.27
142 | E14Q | 1.5
143 | E14H | 1.92
144 | E14D | 1.46
145 | E14P | 2.18

Row | Variant | protein stability index
146 | E14A | 2.11
147 | E14F | 1.99
148 | E14M | 2.26
149 | E14T | 2.79
150 | E14I | 2.17
151 | E14W | 2
152 | K22M | 2.54
153 | K22R | 1.8
154 | K22T | 2.14
155 | K22D | 2.08
156 | K22E | 1.78
157 | K22N | 2.04
158 | K22S | 1.72
159 | K22W | 3.19
160 | K22F | 2.26
161 | K22P | 1.76
162 | K22Q | 1.53
163 | K22Y | 1.61
164 | K22H | 1.96
165 | K22I | 1.88
166 | K22A | 2.23
167 | K22L | 1.96
168 | K22C | 2.1
169 | K22G | 1.89
170 | K22V | 2.81

Row | Variant | protein stability index
171 | A23P | 1.77
172 | A23I | 2.24
173 | A23W | 2.51
174 | A23T | 1.8
175 | A23S | 1.54
176 | A23M | 1.81
177 | A23L | 1.31
178 | A23K | 2.23
179 | A23H | 2.47
180 | A23R | 2.4
181 | A23D | 2
182 | A23N | 1.82
183 | A23G | 1.91
184 | A23E | 1.65
185 | A23Q | 1.74
186 | A23Y | 2.44
187 | A23C | 1.84
188 | A23V | 2.3
189 | A23F | 2.06
190 | Q15C | 2.24
191 | Q15Y | 2.69
192 | Q15W | 1.86
193 | Q15E | 2.07
194 | Q15G | 2.37
195 | Q15M | 1.7

Row | Variant | protein stability index
196 | Q15I | 2.37
197 | Q15H | 2.33
198 | Q15F | 1.5
199 | Q15R | 1.74
200 | Q15K | 1.43
201 | Q15V | 2.17
202 | Q15N | 1.55
203 | Q15T | 2.23
204 | Q15S | 1.96
205 | Q15P | 2.28
206 | Q15A | 1.5
207 | Q15D | 2.08
208 | Q15L | 2.69
209 | P11D | 2.11
210 | P11F | 3.09
211 | P11A | 1.6
212 | P11Q | 2.12
213 | P11G | 2.51
214 | P11Y | 2.75
215 | P11W | 3.67
216 | P11L | 1.51
217 | P11N | 2.37
218 | P11S | 2.65
219 | P11K | 2.01
220 | P11M | 1.45

Row | Variant | protein stability index
221 | P11R | 1.41
222 | P11T | 1.74
223 | P11V | 1.41
224 | P11I | 2.3
225 | P11E | 1.72
226 | P11H | 1.97
227 | V17N | 1.62
228 | V17C | 2.19
229 | V17T | 1.91
230 | V17F | 2.88
231 | V17G | 1.98
232 | V17K | 2.83
233 | V17L | 2.3
234 | V17S | 1.55
235 | V17M | 2.04
236 | V17A | 1.84
237 | V17P | 2.31
238 | V17R | 1.41
239 | V17I | 2.24
240 | V17Q | 3.85
241 | V17E | 2.24
242 | V17D | 2.2
243 | V17H | 2.1
244 | V17Y | 2.44
245 | V17W | 3.01

Row | Variant | protein stability index
246 | S13I | 1.62
247 | S13D | 1.57
248 | S13Y | 2.2
249 | S13H | 2.34
250 | S13R | 1.86
251 | S13A | 2.22
252 | S13T | 1.74
253 | S13F | 2.56
254 | S13G | 1.86
255 | S13K | 1.55
256 | S13M | 2
257 | S13V | 2.07
258 | S13C | 2.24
259 | S13E | 1.88
260 | S13L | 2.32
261 | S13W | 1.18
262 | S13N | 2.32
263 | S13P | 1.64
264 | S13Q | 1.72
265 | L8P | 1.75
266 | L8M | 2.5
267 | L8V | 1.67
268 | L8H | 2.16
269 | L8R | 1.6
270 | L8Q | 1.53

Row | Variant | protein stability index
271 | L8I | 2.04
272 | L8W | 2.1
273 | L8N | 1.98
274 | L8Y | 1.86
275 | L8K | 1.71
276 | L8T | 1.95
277 | L8S | 2.26
278 | G21A | 1.99
279 | G21V | 2.12
280 | G21P | 3.07
281 | G21R | 2.32
282 | G21Y | 3.28
283 | G21K | 1.59
284 | G21H | 2.1
285 | G21Q | 2.3
286 | G21F | 2.77
287 | G21L | 1.58
288 | G21W | 2.5
289 | G21C | 1.83
290 | G21I | 2.1
291 | G21E | 2.49
292 | G21D | 2.71
293 | G21N | 2.75
294 | G21S | 1.6
295 | G21T | 1.86

Row | Variant | protein stability index
296 | G21M | 3.92
297 | F19V | 2.28
298 | F19R | 1.68
299 | F19W | 2.33
300 | F19M | 1.9
301 | F19T | 2.65
302 | F19Q | 2.54
303 | F19C | 2.06
304 | F19A | 2.03
305 | F19L | 1.96
306 | F19S | 2.71
307 | F19E | 2.7
308 | F19K | 2.25
309 | F19D | 2.01
310 | F19H | 2.56
311 | F19G | 1.39
312 | F19N | 2
313 | F19Y | 1.9
314 | F19P | 2.03
315 | F19I | 2.02
316 | L16A | 2.14
317 | L16M | 2.02
318 | L16S | 1.91
319 | L16W | 2.26
320 | L16H | 1.49

Row | Variant | protein stability index
321 | L16Q | 1.92
322 | L16K | 1.9
323 | L16E | 2.1
324 | L16I | 2.23
325 | L16P | 2.55
326 | L16D | 2.05
327 | L16T | 1.79
328 | L16R | 1.95
329 | L16V | 1.34
330 | L16Y | 1.73
331 | L16N | 1.66
332 | L16F | 1.88
333 | L16G | 1.81
334 | L16C | 2.16
